Here are results for 26 molecules from patent US20130225506A1 (POLYPHOR, published 2013).

The target in this experiment is chemokine receptor CXCR7 (UniProt P25106 1-362, limits assumed). The experiment in a line: cell-based or functional assay.

Square brackets hold non-standard residues; d marks the D form. Primed or numbered codes have the meaning given here. dPro(cis-4-NH2) = N[C@H]1CN[C@@H](C(=O)O)C1; dPro(4S-NH2) = N[C@@H]1CN[C@@H](C(=O)O)C1; 1Nal = N[C@@H](Cc1cccc2ccccc12)C(=O)O; 2Nal = N[C@@H](Cc1ccc2ccccc2c1)C(=O)O; Pro(3S-OH) = O=C(O)[C@H]1NCC[C@@H]1O; dCit = NC(=O)NCCC[C@@H](N)C(=O)O; Tic = O=C(O)[C@@H]1Cc2ccccc2CN1; Agb = N=C(N)NCC[C@H](N)C(=O)O; Agp = N=C(N)NC[C@H](N)C(=O)O; Orn = NCCC[C@H](N)C(=O)O; dPip′ = not defined here; Dab = NCC[C@H](N)C(=O)O

Sequence of chemokine receptor CXCR7 (P25106 whole entry): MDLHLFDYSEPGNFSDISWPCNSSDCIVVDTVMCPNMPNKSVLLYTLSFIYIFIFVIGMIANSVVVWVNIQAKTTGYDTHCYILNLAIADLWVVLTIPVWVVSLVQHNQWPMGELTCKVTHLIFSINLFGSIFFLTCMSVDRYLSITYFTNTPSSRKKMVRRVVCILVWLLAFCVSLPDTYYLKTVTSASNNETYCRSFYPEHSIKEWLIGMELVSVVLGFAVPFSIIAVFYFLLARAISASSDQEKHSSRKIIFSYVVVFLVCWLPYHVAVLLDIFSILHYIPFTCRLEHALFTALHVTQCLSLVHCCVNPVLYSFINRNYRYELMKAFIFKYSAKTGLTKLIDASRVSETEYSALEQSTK

B1: cyclo(-Ile-^DArg-Arg-1Nal-^DPro-Thr-) (peptide)
peptide: cyclo(I[dR]R[1Nal][dP]T)
SMILES: CC[C@H](C)[C@@H]1NC(=O)[C@H]([C@@H](C)O)NC(=O)[C@H]2CCCN2C(=O)[C@H](Cc2cccc3ccccc23)NC(=O)[C@H](CCCNC(=N)N)NC(=O)[C@@H](CCCNC(=N)N)NC1=O
For B1, the “β-Arrestin EC50” value amounted to 17.9 nM.

B2: cyclo(-Ile-^DCit-Arg-Trp-^DPro-Thr-) (peptide)
peptide: cyclo(I[dCit]RW[dP]T)
SMILES: CC[C@H](C)[C@@H]1NC(=O)[C@H]([C@@H](C)O)NC(=O)[C@H]2CCCN2C(=O)[C@H](Cc2c[nH]c3ccccc23)NC(=O)[C@H](CCCNC(=N)N)NC(=O)[C@@H](CCCNC(N)=O)NC1=O
B2: the “β-Arrestin EC50” value is 472 nM.

B3: cyclo(-Ile-^DArg-Arg-Trp-^DPro-Thr-) (peptide)
peptide: cyclo(I[dR]RW[dP]T)
SMILES: CC[C@H](C)[C@@H]1NC(=O)[C@H]([C@@H](C)O)NC(=O)[C@H]2CCCN2C(=O)[C@H](Cc2c[nH]c3ccccc23)NC(=O)[C@H](CCCNC(=N)N)NC(=O)[C@@H](CCCNC(=N)N)NC1=O
Take B3: the “β-Arrestin EC50” value stood at 6.7 nM.

B4: cyclo(-Trp-^DPhe-Trp-Lys-^DPro((4R)NH2)-Tic-) (peptide)
peptide: cyclo(W[dF]WK[dPro(cis-4-NH2)][Tic])
SMILES: NCCCC[C@@H]1NC(=O)[C@H](Cc2c[nH]c3ccccc23)NC(=O)[C@@H](Cc2ccccc2)NC(=O)[C@H](Cc2c[nH]c3ccccc23)NC(=O)[C@@H]2Cc3ccccc3CN2C(=O)[C@H]2C[C@@H](N)CN2C1=O
Turning to B4, the “β-Arrestin EC50” value was found to be 138 nM.

B5: cyclo(-Trp-^DPhe-Trp-Dab-^DPro((4R)NH2)-Tic-) (peptide)
peptide: cyclo(W[dF]W[Dab][dPro(cis-4-NH2)][Tic])
SMILES: NCC[C@@H]1NC(=O)[C@H](Cc2c[nH]c3ccccc23)NC(=O)[C@@H](Cc2ccccc2)NC(=O)[C@H](Cc2c[nH]c3ccccc23)NC(=O)[C@@H]2Cc3ccccc3CN2C(=O)[C@H]2C[C@@H](N)CN2C1=O
Turning to B5, the “β-Arrestin EC50” value was found to be 13.6 nM.

B6: cyclo(-Trp-^DPhe-Trp-Orn-^DPro((4R)NH2)-Tic-) (peptide)
peptide: cyclo(W[dF]W[Orn][dPro(cis-4-NH2)][Tic])
SMILES: NCCC[C@@H]1NC(=O)[C@H](Cc2c[nH]c3ccccc23)NC(=O)[C@@H](Cc2ccccc2)NC(=O)[C@H](Cc2c[nH]c3ccccc23)NC(=O)[C@@H]2Cc3ccccc3CN2C(=O)[C@H]2C[C@@H](N)CN2C1=O
In the case of B6, the “β-Arrestin EC50” value amounted to 26.1 nM.

B7: cyclo(-Thr-^DArg-Trp-Arg-^DPro-Thr-) (peptide)
peptide: cyclo(T[dR]WR[dP]T)
SMILES: C[C@@H](O)[C@@H]1NC(=O)[C@H]([C@@H](C)O)NC(=O)[C@H]2CCCN2C(=O)[C@H](CCCNC(=N)N)NC(=O)[C@H](Cc2c[nH]c3ccccc23)NC(=O)[C@@H](CCCNC(=N)N)NC1=O
B7: the “β-Arrestin EC50” value stood at 17.2 nM.

B8: cyclo(-Ile-^DArg-Arg-Trp-^DPro-Ser-) (peptide)
peptide: cyclo(I[dR]RW[dP]S)
SMILES: CC[C@H](C)[C@@H]1NC(=O)[C@H](CO)NC(=O)[C@H]2CCCN2C(=O)[C@H](Cc2c[nH]c3ccccc23)NC(=O)[C@H](CCCNC(=N)N)NC(=O)[C@@H](CCCNC(=N)N)NC1=O
For B8, the “β-Arrestin EC50” value is 12.8 nM.

B9: cyclo(-Ile-^DLys-Arg-Trp-^DPro-Thr-) (peptide)
peptide: cyclo(I[dK]RW[dP]T)
SMILES: CC[C@H](C)[C@@H]1NC(=O)[C@H]([C@@H](C)O)NC(=O)[C@H]2CCCN2C(=O)[C@H](Cc2c[nH]c3ccccc23)NC(=O)[C@H](CCCNC(=N)N)NC(=O)[C@@H](CCCCN)NC1=O
As to B9, the “β-Arrestin EC50” value came to 86.7 nM.

B10: cyclo(-Ile-^DArg-Agb-Trp-^DPro-Thr-) (peptide)
peptide: cyclo(I[dR][Agb]W[dP]T)
SMILES: CC[C@H](C)[C@@H]1NC(=O)[C@H]([C@@H](C)O)NC(=O)[C@H]2CCCN2C(=O)[C@H](Cc2c[nH]c3ccccc23)NC(=O)[C@H](CCNC(=N)N)NC(=O)[C@@H](CCCNC(=N)N)NC1=O
Take B10: the “β-Arrestin EC50” value turned out to be 22.3 nM.

B11: cyclo(-Tyr-^DPhe-Trp-Arg-^DPro((4R)NH2)-Tic-) (peptide)
peptide: cyclo(Y[dF]WR[dPro(cis-4-NH2)][Tic])
SMILES: N=C(N)NCCC[C@@H]1NC(=O)[C@H](Cc2c[nH]c3ccccc23)NC(=O)[C@@H](Cc2ccccc2)NC(=O)[C@H](Cc2ccc(O)cc2)NC(=O)[C@@H]2Cc3ccccc3CN2C(=O)[C@H]2C[C@@H](N)CN2C1=O
As for B11, the “β-Arrestin EC50” value turned out to be 20.9 nM.

B12: cyclo(-Ile-^DArg-Arg-Ile-^DPro-Thr-) (peptide)
peptide: cyclo(I[dR]RI[dP]T)
SMILES: CC[C@H](C)[C@@H]1NC(=O)[C@H]([C@@H](C)O)NC(=O)[C@H]2CCCN2C(=O)[C@H]([C@@H](C)CC)NC(=O)[C@H](CCCNC(=N)N)NC(=O)[C@@H](CCCNC(=N)N)NC1=O
Consider B12, for which the “β-Arrestin EC50” value is 79.7 nM.

B13: cyclo(-Ile-^DHis-Arg-Trp-^DPro-Thr-) (peptide)
peptide: cyclo(I[dH]RW[dP]T)
SMILES: CC[C@H](C)[C@@H]1NC(=O)[C@H]([C@@H](C)O)NC(=O)[C@H]2CCCN2C(=O)[C@H](Cc2c[nH]c3ccccc23)NC(=O)[C@H](CCCNC(=N)N)NC(=O)[C@@H](Cc2c[nH]cn2)NC1=O
For B13, the “β-Arrestin EC50” value is 546 nM.

B14: cyclo(-Ile-^DArg-Arg-Trp-^DPro-Pro((3S)OH)-) (peptide)
peptide: cyclo(I[dR]RW[dP][Pro(3S-OH)])
SMILES: CC[C@H](C)[C@@H]1NC(=O)[C@@H]2[C@@H](O)CCN2C(=O)[C@H]2CCCN2C(=O)[C@H](Cc2c[nH]c3ccccc23)NC(=O)[C@H](CCCNC(=N)N)NC(=O)[C@@H](CCCNC(=N)N)NC1=O
As for B14, the “β-Arrestin EC50” value came out at 123 nM.

B15: cyclo(-Trp-^DArg-Arg-Trp-^DPro-Thr-) (peptide)
peptide: cyclo(W[dR]RW[dP]T)
SMILES: C[C@@H](O)[C@@H]1NC(=O)[C@H]2CCCN2C(=O)[C@H](Cc2c[nH]c3ccccc23)NC(=O)[C@H](CCCNC(=N)N)NC(=O)[C@@H](CCCNC(=N)N)NC(=O)[C@H](Cc2c[nH]c3ccccc23)NC1=O
As for B15, the “β-Arrestin EC50” value came to 538 nM.

B16: cyclo(-Trp-^DPhe-Trp-Arg-^DPro((4S)NH2)-Tic-) (peptide)
peptide: cyclo(W[dF]WR[dPro(4S-NH2)][Tic])
SMILES: N=C(N)NCCC[C@@H]1NC(=O)[C@H](Cc2c[nH]c3ccccc23)NC(=O)[C@@H](Cc2ccccc2)NC(=O)[C@H](Cc2c[nH]c3ccccc23)NC(=O)[C@@H]2Cc3ccccc3CN2C(=O)[C@H]2C[C@H](N)CN2C1=O
Turning to B16, the “β-Arrestin EC50” value turned out to be 17.5 nM.

B17: cyclo(-Trp-^DPhe-Trp-His-^DPro((4R)NH2)-Tic-) (peptide)
peptide: cyclo(W[dF]WH[dPro(cis-4-NH2)][Tic])
SMILES: N[C@@H]1C[C@@H]2C(=O)N3Cc4ccccc4C[C@H]3C(=O)N[C@@H](Cc3c[nH]c4ccccc34)C(=O)N[C@H](Cc3ccccc3)C(=O)N[C@@H](Cc3c[nH]c4ccccc34)C(=O)N[C@@H](Cc3c[nH]cn3)C(=O)N2C1
For the molecule B17, the “β-Arrestin EC50” value turned out to be 20.4 nM.

B18: cyclo(-1Nal-^DArg-Arg-Trp-^DPro-Thr-) (peptide)
peptide: cyclo([1Nal][dR]RW[dP]T)
SMILES: C[C@@H](O)[C@@H]1NC(=O)[C@H]2CCCN2C(=O)[C@H](Cc2c[nH]c3ccccc23)NC(=O)[C@H](CCCNC(=N)N)NC(=O)[C@@H](CCCNC(=N)N)NC(=O)[C@H](Cc2cccc3ccccc23)NC1=O
As to B18, the “β-Arrestin EC50” value turned out to be 28.5 nM.

B19: cyclo(-Ile-^DArg-Arg-Tyr-^DPro-Thr-) (peptide)
peptide: cyclo(I[dR]RY[dP]T)
SMILES: CC[C@H](C)[C@@H]1NC(=O)[C@H]([C@@H](C)O)NC(=O)[C@H]2CCCN2C(=O)[C@H](Cc2ccc(O)cc2)NC(=O)[C@H](CCCNC(=N)N)NC(=O)[C@@H](CCCNC(=N)N)NC1=O
Regarding B19, the “β-Arrestin EC50” value turned out to be 83.7 nM.

B20: cyclo(-Trp-^DPhe-Trp-Arg-^DPro((4R)NH2)-Tic-) (peptide)
peptide: cyclo(W[dF]WR[dPro(cis-4-NH2)][Tic])
SMILES: N=C(N)NCCC[C@@H]1NC(=O)[C@H](Cc2c[nH]c3ccccc23)NC(=O)[C@@H](Cc2ccccc2)NC(=O)[C@H](Cc2c[nH]c3ccccc23)NC(=O)[C@@H]2Cc3ccccc3CN2C(=O)[C@H]2C[C@@H](N)CN2C1=O
Take B20: the “β-Arrestin EC50” value was 6.1 nM.

B21: cyclo(-Ile-^DArg-Agp-Trp-^DPro-Thr-) (peptide)
peptide: cyclo(I[dR][Agp]W[dP]T)
SMILES: CC[C@H](C)[C@@H]1NC(=O)[C@H]([C@@H](C)O)NC(=O)[C@H]2CCCN2C(=O)[C@H](Cc2c[nH]c3ccccc23)NC(=O)[C@H](CNC(=N)N)NC(=O)[C@@H](CCCNC(=N)N)NC1=O
In the case of B21, the “β-Arrestin EC50” value stood at 90.5 nM.

B22: cyclo(-Ala-^DPhe-Trp-Arg-^DPro((4R)NH2)-Tic-) (peptide)
peptide: cyclo(A[dF]WR[dPro(cis-4-NH2)][Tic])
SMILES: C[C@@H]1NC(=O)[C@@H]2Cc3ccccc3CN2C(=O)[C@H]2C[C@@H](N)CN2C(=O)[C@H](CCCNC(=N)N)NC(=O)[C@H](Cc2c[nH]c3ccccc23)NC(=O)[C@@H](Cc2ccccc2)NC1=O
On to B22, for which the “β-Arrestin EC50” value was found to be 322 nM.

B23: cyclo(-Ile-^DArg-Trp-Arg-^DPro-Thr-) (peptide)
peptide: cyclo(I[dR]WR[dP]T)
SMILES: CC[C@H](C)[C@@H]1NC(=O)[C@H]([C@@H](C)O)NC(=O)[C@H]2CCCN2C(=O)[C@H](CCCNC(=N)N)NC(=O)[C@H](Cc2c[nH]c3ccccc23)NC(=O)[C@@H](CCCNC(=N)N)NC1=O
Turning to B23, the “β-Arrestin EC50” value was found to be 62.5 nM.

B24: cyclo(-Ile-^DArg-Arg-2Nal-^DPro-Thr-) (peptide)
peptide: cyclo(I[dR]R[2Nal][dP]T)
SMILES: CC[C@H](C)[C@@H]1NC(=O)[C@H]([C@@H](C)O)NC(=O)[C@H]2CCCN2C(=O)[C@H](Cc2ccc3ccccc3c2)NC(=O)[C@H](CCCNC(=N)N)NC(=O)[C@@H](CCCNC(=N)N)NC1=O
Consider B24, for which the “β-Arrestin EC50” value was 0.4 nM.

B25: cyclo(-Ile-^DArg-Lys-Trp-^DPro-Thr-) (peptide)
peptide: cyclo(I[dR]KW[dP]T)
SMILES: CC[C@H](C)[C@@H]1NC(=O)[C@H]([C@@H](C)O)NC(=O)[C@H]2CCCN2C(=O)[C@H](Cc2c[nH]c3ccccc23)NC(=O)[C@H](CCCCN)NC(=O)[C@@H](CCCNC(=N)N)NC1=O
As for B25, the “β-Arrestin EC50” value is 78.7 nM.
As to cyclo(I[dR]RW[dPip′]T) [cyclo(-Ile-^DArg-Arg-Trp-^DPip-Thr-)], the “β-Arrestin EC50” value amounted to 0.1 nM.
